In assay [1] the target is RSV F monomer (uncleaved RSV F Delp23 Furdel; Delp23 Furdel Truncated HIS construct) (respiratory syncytial virus). The assay can be described thus: SPR (BIAcore), D25 Fab immobilised on CM5 chip, F monomer as analyte, 1:1 fit. Background: In SPR one partner is held on a chip, and binding of the other changes the refractive index at the surface.
Assay [2] has the same target. The assay can be described thus: analytical HPLC-SEC of F monomer with 1:1 molar D25 Fab; monomer alone ~11.5 min.
The target is the same in assay [3]. Kind of assay: preparatory SEC of F monomer with D25 Fab at 1:1 molar ratio; monomer alone ~1.4 mls.
For assay [4], the target named is RSV F trimerized-monomer: RSV Monomer (Delp23 Furdel) + HRA peptide (respiratory syncytial virus). Kind of assay: preparatory SEC of the trimerized F fraction with about 10-fold excess D25 Fab; trimerized monomer alone ~1.2 mls.

The results in this text go back to patent publication US20150329597A1.

As for “D25 Fab harboring a HIS-tag and Strep-tag”, in assay [1], the Kd (in general, the concentration at which binding is half-saturated) was 0.053 nM; the off-rate constant (koff) (usually the rate constant with which the complex falls apart) turned out to be 9.9e-06 s⁻¹; the kon – broadly, the second-order rate constant of association – was determined as 190000 M⁻¹ s⁻¹. The Retention Time Wyatt SEC WTC-030S5 (mixture) in assay [2] came out at 10.3 min. The Retention Volume Micro-Superdex 200 (mixture) in assay [3] is 1.3 mls. Besides, the Retention Volume Micro-Superdex 200 (mixture) in assay [4] is 1.1 mls.
